Data taken from article PMC3792040, “Nectin-3 (CD113) Interacts with Nectin-2 (CD112) to Promote Lymphocyte Transendothelial Migration” (PLoS ONE, 2013).

What follows are binders tested against T1, soluble Nectin-3 (Nec3-Fc) (human, UniProt Q9NQS3 58-404, biotin (the soluble copy in the in vitro binding assay: 'Biotinylated Nec3-Fc')) (assay: ELISA; Fc proteins (10^-7 M) captured on wells by goat anti-human Fc, 2 h 37 °C; free anti-Fc blocked with human immunoglobulin; biotinylated Nec3-Fc (10^-7 M) incubated 2 h at 37 °C in the absence of Ca2+; streptavidin peroxidase, ABTS). Conditions: both partners purified.
T1 construct: Nectin-3 (CD113), human, recombinant soluble form fused to Fc; Probably the extracellular domain; Biotinylated as analyte in the ELISA, not biotinylated when captured in the ELISA or used on cells; also called CD113; source: COS cells, transfected, purified from supernatants on Affi-Gel protein A
T1 sequence (Q9NQS3 58-404): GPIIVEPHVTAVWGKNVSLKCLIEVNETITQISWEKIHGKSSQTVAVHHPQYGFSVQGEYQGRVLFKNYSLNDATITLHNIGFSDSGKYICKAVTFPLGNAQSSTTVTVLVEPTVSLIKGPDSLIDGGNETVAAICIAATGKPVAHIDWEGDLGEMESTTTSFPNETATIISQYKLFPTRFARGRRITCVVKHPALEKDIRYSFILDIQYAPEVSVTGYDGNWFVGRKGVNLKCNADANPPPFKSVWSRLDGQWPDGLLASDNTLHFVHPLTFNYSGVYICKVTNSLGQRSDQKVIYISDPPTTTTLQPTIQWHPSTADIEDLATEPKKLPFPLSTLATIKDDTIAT

| binding result | Binder |
| --- | --- |
| binds | Nec1-Fc (Fc fusion, human, UniProt Q15223 31-355, looked up, Nectin-1 (CD111), human, soluble form fused to Fc; Probably the extracellular domain; also called Nectin-1; CD111; source: COS cells, transfected, purified from supernatants on Affi-Gel protein A) QVVQVNDSMYGFIGTDVVLHCSFANPLPSVKITQVTWQKSTNGSKQNVAIYNPSMGVSVLAPYRERVEFLRPSFTDGTIRLSRLELEDEGVYICEFATFPTGNRESQLNLTVMAKPTNWIEGTQAVLRAKKGQDDKVLVATCTSANGKPPSVVSWETRLKGEAEYQEIRNPNGTVTVISRYRLVPSREAHQQSLACIVNYHMDRFKESLTLNVQYEPEVTIEGFDGNWYLQRMDVKLTCKADANPPATEYHWTTLNGSLPKGVEAQNRTLFFKGPINYSLAGTYICEATNPIGTRSGQVEVNITEFPYTPSPPEHGRRAGPVPTA |
| binds | Nec2-Fc (Fc fusion, human, UniProt Q92692 32-360, looked up, Nectin-2 (CD112), human, soluble form fused to Fc; Probably the extracellular domain; also called Nectin-2; CD112; source: COS cells, transfected, purified from supernatants on Affi-Gel protein A) QDVRVQVLPEVRGQLGGTVELPCHLLPPVPGLYISLVTWQRPDAPANHQNVAAFHPKMGPSFPSPKPGSERLSFVSAKQSTGQDTEAELQDATLALHGLTVEDEGNYTCEFATFPKGSVRGMTWLRVIAKPKNQAEAQKVTFSQDPTTVALCISKEGRPPARISWLSSLDWEAKETQVSGTLAGTVTVTSRFTLVPSGRADGVTVTCKVEHESFEEPALIPVTLSVRYPPEVSISGYDDNWYLGRTDATLSCDVRSNPEPTGYDWSTTSGTFPTSAVAQGSQLVIHAVDSLFNTTFVCTVTNAVGMGRAEQVIFVRETPNTAGAGATGG |
| binds | PVR-Fc (Fc fusion, human, UniProt P15151 21-343, looked up, PVR (CD155, Necl-5), human, soluble form fused to Fc; Probably the extracellular domain; also called CD155; Necl-5; source: COS cells, transfected, purified from supernatants on Affi-Gel protein A) WPPPGTGDVVVQAPTQVPGFLGDSVTLPCYLQVPNMEVTHVSQLTWARHGESGSMAVFHQTQGPSYSESKRLEFVAARLGAELRNASLRMFGLRVEDEGNYTCLFVTFPQGSRSVDIWLRVLAKPQNTAEVQKVQLTGEPVPMARCVSTGGRPPAQITWHSDLGGMPNTSQVPGFLSGTVTVTSLWILVPSSQVDGKNVTCKVEHESFEKPQLLTVNLTVYYPPEVSISGYDNNWYLGQNEATLTCDARSNPEPTGYNWSTTMGPLPPFAVAQGAQLLIRPVDKPINTTLICNVTNALGARQAELTVQVKEGPPSEHSGISRN |
